From article PMC4899871, “The T300A Crohn's disease risk polymorphism impairs function of the WD40 domain of ATG16L1” (Nature Communications, 2016)
Ends that are not written are not given here. Tds = not defined here

B1: TMEM59 263–281 peptide, wild type (19-amino acid peptide that includes the ATG16L1-binding motif) (peptide, UniProt Q9BXS4 263-281, looked up)
peptide: Tds-TAVEQYVPSEKLSIYGDLE
modifications: not fully specified; reading uncertain
notes: TMEM59 residues 263-281 of the intracellular domain; also called WT peptide; native peptide; source: synthetic peptide on microarray, bought: JPT (Germany)
B2: TMEM59 263–281 peptide E272A (peptide, UniProt Q9BXS4 263-281, looked up)
peptide: Tds-TAVEQYVPSAKLSIYGDLE
modifications: reading uncertain
notes: TMEM59 residues 263-281 with E272A; source: synthetic peptide on microarray, bought: JPT (Germany)

Assays:
Experiment in all cases: peptide or protein array; Peptides immobilised through the N-terminus (Tds spacer) on glass slides (JPT), nine spots per peptide; recombinant ligand 400 nM to 1 uM in PBS/0.05% Tween-20 with 5% BSA, 2 h at room temperature then overnight at 4 °C; detected with anti-HA plus anti-GST and Cy5-labelled secondary antibodies; background of a FLAG peptide subtracted
Details in all cases: both partners purified
[1] = target: T1, GST-HA-ATG16L1-231–607 A300, purified from human cells (human, UniProt Q676U5 231-607, T300A)
T1 construct: source: HEK-293T, retrovirally transduced, purified (GSH-agarose)
T1 sequence (Q676U5 231-607 T300A): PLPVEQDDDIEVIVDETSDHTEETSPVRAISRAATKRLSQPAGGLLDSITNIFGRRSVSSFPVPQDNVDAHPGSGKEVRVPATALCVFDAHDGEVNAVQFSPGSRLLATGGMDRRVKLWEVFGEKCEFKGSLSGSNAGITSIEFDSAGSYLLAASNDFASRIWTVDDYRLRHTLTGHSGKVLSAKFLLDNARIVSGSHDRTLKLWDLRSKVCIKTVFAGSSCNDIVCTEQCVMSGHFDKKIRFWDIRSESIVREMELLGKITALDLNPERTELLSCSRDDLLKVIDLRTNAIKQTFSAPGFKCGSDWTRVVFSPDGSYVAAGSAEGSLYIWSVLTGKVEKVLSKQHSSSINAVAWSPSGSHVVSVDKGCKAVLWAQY

[2] = target: T2, GST-HA-ATG16L1-231–607 T300, purified from human cells (human, UniProt Q676U5 231-607)
T2 construct: source: HEK-293T, retrovirally transduced, purified (GSH-agarose)
T2 sequence (Q676U5 231-607): as the sequence (Q676U5 231-607 T300A) above, with A70T counted along it

[3] = target: T3, GST-HA-ATG16L1-320–607 (recombinant WD40 domain fused to GST and the HA tag) (human, UniProt Q676U5 320-607)
T3 construct: source: E. coli BL21 (pGEX), purified (GSH-agarose, eluted with reduced GSH)
T3 sequence (Q676U5 320-607): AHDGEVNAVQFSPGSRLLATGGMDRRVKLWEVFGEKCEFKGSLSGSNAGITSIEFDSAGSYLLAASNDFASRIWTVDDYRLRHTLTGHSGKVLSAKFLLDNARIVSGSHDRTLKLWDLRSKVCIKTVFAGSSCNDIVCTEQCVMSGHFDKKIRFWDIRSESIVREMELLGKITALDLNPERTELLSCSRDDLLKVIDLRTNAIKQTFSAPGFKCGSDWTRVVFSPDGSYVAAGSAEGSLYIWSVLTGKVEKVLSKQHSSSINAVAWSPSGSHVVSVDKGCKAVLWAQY

Row | Binder | binding result [1] | binding result [2] | binding result [3]
1 | B1 | binds | binds | binds
2 | B2 |  | binds | 
